In the DeepSol protein solubility set:

Assay: soluble on expression in E. coli; label from the status in PepcDB or PDB records

Row | Sequence | soluble on expression in E. coli
1 | MFKPELLSPAGTLKNMRYAFAYGADAVYAGQPRYSLRVRNNDFKMENLATGIEEAHALGKKLYVVSNIAPHNAKLKTYIKDMEPVVAMKPDALIMSDPGLIMMVREAFPEQVVHLSVQANAINWASVKFWQTQGIKRVILSRELSLDEIEEIRQRCPDIELEVFVHGALCMAYSGRCLLSGYINKRDPNQGTCTNACRWKYDVHEAQQTDSGDIIATPNAVQIETPTTLGAGAPTEQIFLLQEANRPGEYMPAFEDEHGTYIMNSKDLRAIQHVERLAKMGIDSLKIEGRTKSFYYVARTAQLYRQAIDDAASGKSFDRSLMNQLEGLAHRGYTEGFLRRHVHDEYQNYDYGYSVSDTQQFVGELTGKRNLAGLAEIEVKNKFSVGDSVELMTPQGNISLTIEQLENRKAEAVEAGLGSGHSVYLPVPKEVDLNHGILLRNLPQGQDTRNPHEAG | not soluble
2 | MFNIMLVKFVVIFALILASCRVEADNTSVLPEGFVDAAQRSTHTNNWAVLVDASRFWFNYRHVANVLSIYRSVKRLGIPDSQIILMIADDMACNARNPRPGQVYNNANQHINVYGDDVEVDYRGYEVTVENFVRLLTGRTQNGTARSKKLLSDAGSNVLIYLTGHGGDGFLKFQDSEEITSQELADGIQQMWEKKRYNELFFMVDTCQAASLYEKFTSPNVLAVASSLVGEDSLSHHVDPSIGVYMIDRYTYYALEFLEKVQPFSKRTIGEFLQVCPKRVCISTVGVRKDLYPRDPHKVPITDFFGAIRPTRVSTDRINVTLANEELEHHHHHH | not soluble
3 | MFNVDGECVVFTSGGTESNNWVIEGTIRNAKKVSKLPHIITTNIEHPSILEPLKRREEDGEISVTYVSINPLTGFVTSQSILDALTSDTCLVTIMLANNDTGVLQPVSEIFQAIREKLKTNVPFLHSDVAQAAGKIPVNVRSLSADAVTVVGHKFYGPRSGALIFNPKSKRIPPMLLGGNQESGWRSGTENTPMIVGLGEAAKVYNEGFLNIESILRQNRDYFEELLLKRLRNSHIIHFIGSQRLPNTSSVAFLDYPSHGCDLLEKCQTFNASTGAACHKNECSPILKACGIPFAVASKTVRISFGRSTKIAEIETVVDELVQLCSPS | not soluble
4 | MFPSGHNEKWTRGYQRENSLLHHDDEFRSFQRRTDCPQHFYQQTNGYEHSLFGEKAGFHEASAQNLLMHLASQISPMEFAKLQLELLASQNKQRPHRGAGFGSYLMSPPATVSSSRSTVLCCNPAPPYASHCQSPAASDDFGHHFGSFDSMSAYNFHNNNQQQRREAHVSRDGKSFDQGNIYTAEDVHTVVKNHRNENNQRVVSNKVFVGGISHMMNRKIINKFFGQFGTVFVDWPVKQKPNSRGKSIAIGSYSYLFLVYSDEQSVIKLMSACHRNSQNDFFVSVPGFRDMIQIRPWFIYNGFYILEKARHNRIIDIHRTVFLGGLPRIVTAEEIAQMFSEFGVVLLVTIDIDQDYGYPKGAARVTFERDSAFNRALEKKFLKFDNIDSSKTMIEIKPYVMEDVGCDECGGLWFNPFLSIYDHLKCAKDDHQKEQKMAEIKNFNMWSSRSPFSLNSGDGHDDLITKMDAGFKKNCNLACTYSNRENEKNETEMGARKFLEMVKSFGLEKEKTVTVNGNEYPIGPDLWDKFLPAPKYDVGTEPVRMNPEAKLQQFLRMKRTNVYSNKSAYCKEAPCRQYYCPSCSNKLHSGPNQHTLLPAG | soluble
5 | MFPVSSIGNDISSDLVRRKMNDLPESPTGNNLEALAPGIEKLKQTSIEMVTLLNTLQPGGKCIITGDFQKELAYLQNVILYNVSSLRLDFLGYNAQIIQRSDNTCELTINEPLKNQEISTGNININCPLKDIYNEIRRLNVIFSCGTGDIVDLSSLDLRNVDLDYYDFTDKHMANTILNPFKLNSTNFTNANMFQVNFVSSTQNATISWDYLLKITPVLISISDMYSEEKIKFVESCLNEPGDITEEQLKIMRFAIIKSIPRATLTDKLENELTKEIYKSSSKIINCLNRIKLTEMKEFSSEKIYDYIDIIIEDYENTKENAYLVVPQINYTMDLNIEDSSSEELLSDNTLEKDENSPDNGFEVGEYNTYEAYNSEKQYFTREDYTYDYDLLNAI | not soluble
6 | MFQFQFPLYNDIVEQARREAVEAGFEELRTPEDVDAAFRRPGTTLVLINSVCGCAGGIARPAAAHAVHYDKRPDHLVTVFAGQDKEATARAREYFVGEPPSSPSFALLKDGKLCAMLHRHDIEGHEPVAVVQKLQALFDEYCEEV | not soluble
7 | MFQISELANYRLCKRCSGRIFAYHYHGISNLERGEYLQFAIGCETGNPDFSFVDSKNCDICHGIFDRFDDIYDLVAKKVGDAQYSTFLVGSVFPQDTIRMEEDIQKKFGSSGESIKKEFNREFGKYFSARTGKEYSQDNPDLTILVNAEYLFVDVKIRSIYIYGKYRKFRRDMPQTRWIHRPNGDTVESVIGSVFTRYAGGTNYYLHGSGREDVDVRMLGNGREFVLEVENPRYREFELDPVVKEINTSGKGVEIFDVKFSSHDAVSEVKLEKHRKVYDALVVSDRPIDESRLLEACINLTGKNIYQRTPLRVAQRRSDLVRTRRIDQVDLVGVSANEAEILISAEAGTYIKELVNGDGGRTRPSLSEMYGSPLNVKELDVIKICRGEDLEHHHHHH | soluble
8 | MFQNSPMMYDWWNDTTKPKHQQPTLNVLSPWGAYFNHIGNELLHLKIASSTVSSGCSSPQQYSSARSVGNSLSNGSVVSTTSSDGDVQLSNKENSNDKSVGDKNGNTTTNKTTVEPPPPEEPPVRVRASHREKLSDSEVLNQLREIVNPSNPLGKYEMKKQIGVGASGTVFVANVAGSTDVVAVKRMAFKTQPKKEMLLTEIKVMKQYRHPNLVNYIESYLVDADDLWVVMDYLEGGNLTDVVVKTELDEGQIAAVLQECLKALHFLHRHSIVHRDIKSDNVLLGMNGEVKLTDMGFCAQIQPGSKRDTVVGTPYWMSPEILNKKQYNYKVDIWSLGIMALEMIDGEPPYLRETPLKAIYLIAQNGKPEIKQRDRLSSEFNNFLDKCLVVDPDQRADTTELLAHPFLKKAKPLSSLIPYIRAVREK | not soluble
9 | MFRIGQGFDVHEFAEGRPLIIGGITIPHEKGLIGHSDADVLLHTIADACLGAIAAGDIGKHFPDTDPAFKDADSAVLLQKVWEFVREQGYELGNLDCTIIAQKPKMAPHIESMRKRISELLETSIDNINVKATTTEKLGFTGREEGIASQAVVLLQKK | not soluble
10 | MFRSVLVEAAVRVESPLLAHRLEDALLHACKQRFCSRILPSLGVCLTALRICKLVDGAGKQLALEIWPVEVSGGGLRARVHVELLLWSPLPHELAFAQVRSCSRFGIRLSILNGFDYAFVPPGSMPEPCTYHEEQRCWSWRFNEDDFVIGEGDWVRVLIERVEYATDSAMATFDSPGTVGSGPPLHILPPPVPVGRTVMETDQANATPGAHPEHAPPLETEPPEFWETPSILPLRVWARLDAPGLGPIDWWS | not soluble
11 | MFSALRHRTAALALGVCFILPVHASSPKPGDFANTQARHIATFFPGRMTGTPAEMLSADYIRQQFQQMGYRSDIRTFNSRYIYTARDNRKNWHNVTGSTVIAAHEGKAPQQIIIMAHLDTYAPQSDADADANLGGLTLQGMDDNAAGLGVMLELAERLKNTPTEYGIRFVATSGEEEGKLGAENLLKRMSDTEKKNTLLVINLDNLIVGDKLYFNSGVKTPEAVRKLTRDRALAIARSHGIAATTNPGLNKNYPKGTGCCNDAEIFDKAGIAVLSVEATNWNLGNKDGYQQRAKTAAFPAGNSWHDVRLDNQQHIDKALPGRIERRCRDVMRIMLPLVKELAKAS | not soluble
12 | MFSGGRKVKWNHFGKKYALRFSDYEMEYADLYDALLKKVHEVRADFEGDLAFIDQYGRQVIVSSDKDVREAIQQSKNKLKLHTTLRDGHVIAAADMAEAARGRPARSQSVPPERSYNMYPQRSPSSMDSAPDTYRHHPQQMTRAMSPPPMSTTTGSTHSPPLRQIGETVKTTYSHSGSYGGLYPGGYKGYPYGGGYSNSILYGMPPHNGMLWRFLANPFPFGNAQTRSFIGPNKYHHFGGYNHMYSSGFGGPVW | not soluble
13 | MFSPSTTTLFRFVECTEDQHALEILEILNDAIINSTALYDYKPRSKESMAAWFATKRQNNFPIIGAVNEVGQLLGFASWGSFRAFPAYKYTVEHSVYIHKDYRGLGLSKHLMNELIKRAVESEVHVMVGCIDATNVASIQLHQKLGFIHSGTIQQAGFKFGRWLDAAFYQLTLDTPLHPQDD | soluble
14 | MFSRRTTPSPSITTASSSTFSISNLTNNNATSTSDLPASAISNIVPQIPPTPRRVPPKIGLLRHLSGFLESKKDLMNDWEIGGTQNKWVCPSDRHLHLRAQLKSGWSVRTATARSPTNSKAQTGSITAAEQEHIQKVLAKAEESKSKEQQRIGKMVDRLEKMRRRATGNGVTHCLLCHTEFGLLASKSYAAMCVDCRKYVCQRNCGVETTDVNQTTGKVETVFLCKICSEAREVLWKKSGAWFYKEMPEFQRPDDRLPYYVPVTTNGTLPNASSAATPLSGTPGGAGPQPMTMPSTSSCQMTTPKWASPGVCNSPGLQMNGGPTSPLPNGTRRNTGHGGIEFPSSSRPSICSVLQAIEPLDRSKSPRPRIQPRWVNEKVMSSMSVDDEEKAASSSDGESFVQSGVPRRALNNKTPVGSTSATTSPAPPPTSTTPTSRREANMERFSRHTHAHANRLYSTDDDDDSSPESRPSTRSTSPRHSLATPSSYAHDTCHDTSLPDADTRSIDSGVVQSDHSNPQQSGLTCSSSSLTPLQQQASHDHHSGGGTPRRISNPDRTTSRVAQSASGTSLVTPPPPISSRTSPDNCNSSPLNVMEHKSSSASTASSGGNRRVGSAEPVLNNHHAMHNNQNHNDINKKLISQTSRAESPLAASSSFLSSPDDDTKQKNRRRDGVGRVNSLQLRTSLDDVAPPVAPISKMNGHIVSSEPTSSTTSNQNHTSVPIPTVPVVPEEEEEKAITASTESASEPGSLGSITLTLTYHSADKKLKMHLIRAKNLKAMDSNGFSDPYVKFHLLPGNTKATKLTSKTIEKTLNPEWNEEMSYYGITEDDKEKKILRVTVLDRDRIGSDFLGETRIALKKLNDNEMKKFNLYLESALPVPQQTKEEENEDRGKINVGLQYNIQQGSLFININRCVELVGMDSTGFSDPYCKVSLTPITSKAHRAKTSTKKRTLNPEWNEQLQFVVPFKDLPKKTLQIGVYDHDLGKHDDYIGGILLSTSAKDERGRQWIKCIENPGTLVEAWHRLELDS | not soluble
15 | MFSVYAHRVAAVKDEENGAVKKVTDSVENYNSENRFERTIIVANDNKTAILLILRLKQDGVKTSVFTNYLADDEIVLGEQKKAFVEGAHKVAVCTTQMFEKMEFDVVKHYIFVDAPAEEKLRDQLRQKAVCEGKKIRVDLVMSESYEVSVKVEEKPAEASKPSPKRKCSFDIYSIKPNKQGKFVIPAEYMGFDESAEDDEYDSEYDDDDYNPFKWLGF | not soluble
16 | MFTGLHDILIILFLLVTLKIAQNVDHTKFLQKYGYLTSGDNQLSSESLSDALKNMQRMAGLEETGELDERTIQMMERPRCGHPDVEDHQKSRGKRYAPPQFKWKEKIITYGCKAVGTSTRISLDDLRRTMHQAASQWSELADVEIVESSVKNPMMVISAGRENHYPCTVRFDTKTLAHAFFPTNGQIHINDRVQFAMTNYTERMGANSLYSVVAHEMGHALGFSHSPDIDSVMFAYDTPRKWKFTSMDKYNMRSYYGAKASKKENEEEERKTENEDKRRKTEKDRGRTREHESDDIRPNECRVENPIVVQYRGEYLIFKSQWVWRVSSDWKRLIIKAVPINQLFPGLPNPIDAAVTVGHNLWVFVGEMIYVIYGNHMVHAPLRLSDIGINEKYVDLAYEWHYFNPPAVYIWKGSRYWKLDEKMYHRRVDERYPKDTDLNWARVPKGVHSAFTYEKEIHLLRGNQVFRMNSSRSVFDIADGYPQPLQSFFGFCPRNEKLVLNSSSSHFSLIYATITILILIF | not soluble
17 | MFTLRELPFAKDSMGDFLSPVAFDFHHGKHHQTYVNNLNNLIKGTDFEKSSLFAILTKSSGGVFNNAAQIYNHDFYWDCLSPKATALSDELKGALEKDFGSLEKFKEDFIKSATTLFGSGWNWAAYNLDTQKIEIIQTSNAQTPVTDKKVPLLVVDVWEHAYYIDHKNARPVYLEKFYGHINWHFVSQCYEWAKKEGLGSVDYYINELVHKKL | soluble
